# US20230002480A1
# Legend:
# Assay in all cases: cell-based or functional assay
# [1] = biological target: HIV-1 Env of pseudovirus 928-28 (HIV-1)
# [2] = biological target: HIV-1 Env of pseudovirus Q461.e2 (HIV-1)
# [3] = biological target: HIV-1 Env of pseudovirus Q259.d2.17 (HIV-1)
# [4] = biological target: HIV-1 Env of pseudovirus X2088_c9 (HIV-1)
# [5] = biological target: HIV-1 Env of pseudovirus ZM247v1(Rev-) (HIV-1)
# [6] = biological target: HIV-1 Env of pseudovirus 231966.c02 (HIV-1)
# [7] = biological target: HIV-1 Env of pseudovirus MS208.A1 (HIV-1)
# [8] = biological target: HIV-1 Env of pseudovirus 1054_07_TC4_1499 (HIV-1)
# [9] = biological target: HIV-1 Env of pseudovirus PVO.4 (HIV-1)
# [10] = biological target: HIV-1 Env of pseudovirus CAAN5342.A2 (HIV-1)
# [11] = biological target: HIV-1 Env of pseudovirus CNE20 (HIV-1)
# [12] = biological target: HIV-1 Env of pseudovirus WEAU_d15_410_787 (HIV-1)
# [13] = biological target: HIV-1 Env of pseudovirus HIV-0013095-2.11 (HIV-1)
# [14] = biological target: HIV-1 Env of pseudovirus T278-50 (HIV-1)
# [15] = biological target: HIV-1 Env of pseudovirus ZM233M.PB6 (HIV-1)
# [16] = biological target: HIV-1 Env of pseudovirus ZM135M.PL10a (HIV-1)
# [17] = biological target: HIV-1 Env of pseudovirus X1254_c3 (HIV-1)
# [18] = biological target: HIV-1 Env of pseudovirus C4118.c09 (HIV-1)
# [19] = biological target: HIV-1 Env of pseudovirus 235-47 (HIV-1)
# [20] = biological target: HIV-1 Env of pseudovirus P0402_c2_11 (HIV-1)
# [21] = biological target: HIV-1 Env of pseudovirus 246F C1G (HIV-1)
# [22] = biological target: HIV-1 Env of pseudovirus AC10.0.29 (HIV-1)
# [23] = biological target: HIV-1 Env of pseudovirus CNE53 (HIV-1)
# [24] = biological target: HIV-1 Env of pseudovirus 6240_08_TA5_4622 (HIV-1)
# [25] = biological target: HIV-1 Env of pseudovirus 263-8 (HIV-1)
# [26] = biological target: HIV-1 Env of pseudovirus Ce704809221_1B3 (HIV-1)
# [27] = biological target: HIV-1 Env of pseudovirus 6535.3 (HIV-1)
# [28] = biological target: HIV-1 Env of pseudovirus Du156.12 (HIV-1)
# [29] = biological target: HIV-1 Env of pseudovirus CNE52 (HIV-1)
# [30] = biological target: HIV-1 Env of pseudovirus BJOX009000.02.4 (HIV-1)
# [31] = biological target: HIV-1 Env of pseudovirus 191955_A11 (HIV-1)
# [32] = biological target: HIV-1 Env of pseudovirus Ce1172_H1 (HIV-1)
# [33] = biological target: HIV-1 Env of pseudovirus RHPA4259.7 (HIV-1)
# [34] = biological target: HIV-1 Env of pseudovirus T250-4 (HIV-1)
# [35] = biological target: HIV-1 Env of pseudovirus Ce703010054_2A2 (HIV-1)
# [36] = biological target: HIV-1 Env of pseudovirus CAP45.2.00.G3 (HIV-1)
# [37] = biological target: HIV-1 Env of pseudovirus 0815.v3.c3 (HIV-1)
substance,measurement,setting,value
8ANC195 (antibody),neutralization IC50,[1],> 50 µg/mL
same,neutralization IC80,[1],> 50 µg/mL
same,neutralization IC50,[2],0.63 µg/mL
same,neutralization IC80,[2],2.51 µg/mL
same,neutralization IC50,[3],> 50 µg/mL
same,neutralization IC80,[3],> 50 µg/mL
same,"IC50, titer in TZM.bl cells",[4],> 50 µg/mL
same,"IC80, titer in TZM.bl cells",[4],> 50 µg/mL
same,neutralization IC50,[5],3.41 µg/mL
same,neutralization IC80,[5],25.1 µg/mL
same,"IC50, titer in TZM.bl cells",[6],0.54 µg/mL
same,"IC80, titer in TZM.bl cells",[6],2.98 µg/mL
same,neutralization IC50,[7],> 50 µg/mL
same,neutralization IC80,[7],> 50 µg/mL
same,neutralization IC50,[8],1.02 µg/mL
same,neutralization IC80,[8],6.75 µg/mL
same,neutralization IC50,[9],0.52 µg/mL
same,neutralization IC80,[9],1.87 µg/mL
same,neutralization IC50,[10],> 50 µg/mL
same,neutralization IC80,[10],> 50 µg/mL
same,neutralization IC50,[11],0.5 µg/mL
same,neutralization IC80,[11],3.19 µg/mL
same,neutralization IC50,[12],> 50 µg/mL
same,neutralization IC80,[12],> 50 µg/mL
same,neutralization IC50,[13],0.32 µg/mL
same,neutralization IC80,[13],1.85 µg/mL
same,"IC50, titer in TZM.bl cells",[14],> 50 µg/mL
same,"IC80, titer in TZM.bl cells",[14],> 50 µg/mL
same,neutralization IC50,[15],7.39 µg/mL
same,neutralization IC80,[15],43.5 µg/mL
same,neutralization IC50,[16],> 50 µg/mL
same,neutralization IC80,[16],> 50 µg/mL
same,"IC50, titer in TZM.bl cells",[17],6.95 µg/mL
same,"IC80, titer in TZM.bl cells",[17],6.95 µg/mL
same,"IC50, titer in TZM.bl cells",[18],0.2 µg/mL
same,"IC80, titer in TZM.bl cells",[18],0.71 µg/mL
same,"IC50, titer in TZM.bl cells",[19],> 50 µg/mL
same,"IC80, titer in TZM.bl cells",[19],> 50 µg/mL
same,"IC50, titer in TZM.bl cells",[20],0.62 µg/mL
same,"IC80, titer in TZM.bl cells",[20],6.35 µg/mL
same,neutralization IC50,[21],12.8 µg/mL
same,neutralization IC80,[21],> 50 µg/mL
same,neutralization IC50,[22],0.88 µg/mL
same,neutralization IC80,[22],7 µg/mL
same,neutralization IC50,[23],> 50 µg/mL
same,neutralization IC80,[23],> 50 µg/mL
same,neutralization IC50,[24],> 50 µg/mL
same,neutralization IC80,[24],> 50 µg/mL
same,neutralization IC50,[25],> 50 µg/mL
same,neutralization IC80,[25],> 50 µg/mL
same,neutralization IC50,[26],0.48 µg/mL
same,neutralization IC80,[26],3.52 µg/mL
same,neutralization IC50,[27],0.2 µg/mL
same,neutralization IC80,[27],0.91 µg/mL
same,neutralization IC50,[28],0.22 µg/mL
same,neutralization IC80,[28],1.56 µg/mL
same,neutralization IC50,[29],5.59 µg/mL
same,neutralization IC80,[29],43.1 µg/mL
same,"IC50, titer in TZM.bl cells",[30],0.64 µg/mL
same,"IC80, titer in TZM.bl cells",[30],3.09 µg/mL
same,neutralization IC50,[31],> 50 µg/mL
same,neutralization IC80,[31],> 50 µg/mL
same,neutralization IC50,[32],42.3 µg/mL
same,neutralization IC80,[32],> 50 µg/mL
same,neutralization IC50,[33],0.34 µg/mL
same,neutralization IC80,[33],1.56 µg/mL
same,"IC50, titer in TZM.bl cells",[34],> 50 µg/mL
same,"IC80, titer in TZM.bl cells",[34],> 50 µg/mL
same,neutralization IC50,[35],13.6 µg/mL
same,neutralization IC80,[35],> 50 µg/mL
same,neutralization IC50,[36],28.3 µg/mL
same,neutralization IC80,[36],> 50 µg/mL
N49P7.2 (antibody),IC50,[1],0.347 µg/mL
same,IC80,[1],1.11 µg/mL
same,MPI,[1],100
same,IC50,[4],0.377 µg/mL
same,IC80,[4],2.03 µg/mL
same,MPI,[4],99
same,IC50,[37],0.023 µg/mL
same,IC80,[37],0.103 µg/mL
same,MPI,[37],100
same,IC50,[6],0.233 µg/mL
same,IC80,[6],1.11 µg/mL
same,MPI,[6],100
same,IC50,[14],> 50 µg/mL
same,IC80,[14],> 50 µg/mL
same,MPI,[14],33
same,IC50,[17],27.5 µg/mL
same,IC80,[17],> 50 µg/mL
same,MPI,[17],53
same,IC50,[18],0.079 µg/mL
same,IC80,[18],0.292 µg/mL
same,MPI,[18],100
same,IC50,[19],0.127 µg/mL
same,IC80,[19],1.03 µg/mL
same,MPI,[19],90
same,IC50,[20],0.106 µg/mL
same,IC80,[20],0.4 µg/mL
same,MPI,[20],100
same,IC50,[25],0.095 µg/mL
same,IC80,[25],0.641 µg/mL
same,MPI,[25],100
same,IC50,[30],> 50 µg/mL
same,IC80,[30],> 50 µg/mL
same,MPI,[30],43
same,IC50,[31],44.5 µg/mL
same,IC80,[31],> 50 µg/mL
same,MPI,[31],56
same,IC50,[34],> 50 µg/mL
same,IC80,[34],> 50 µg/mL
same,MPI,[34],15
